The assay addresses the two scFvs (16-22-H05-sc02 and 16-22-H05-sc04). The experiment in a line: competition ELISA, coated scFv, biotinylated TNFα, unlabeled TNFβ against unlabeled TNFα.

The text below walks through data of patent publication US12209122.

A value given as a limit tells only on which side of the number the result lay.

B1: recombinant human TNFβ (Peprotech, Cat. No. 300-01B) (ligand, UniProt P01374 35-205, looked up)
chain: LPGVGLTPSAAQTARQHPKMHLAHSTLKPAAHLIGDPSKQNSLLWRANTDRAFLQDGFSLSNNSLLVPTSGIYFVYSQVVFSGKAYSPKATSSPLYLAHEVQLFSSQYPFHVPLLSSQKMVYPGLQEPWLHSMYHGAAFQLTQGDQLSTHTDGIPHLVLSPSTVFFGAFAL
On to B1, for which the selectivity for binding to TNFα over TNFβ (fold) was > 20000 fold.
